# Measurements from the DeepSol protein solubility set.
# Experiment: soluble on expression in E. coli; label from the status in PepcDB or PDB records
row,Sequence,soluble on expression in E. coli
1,SDTGFADSNNDSSPGEGSKRGNSGIEGPVPMDVELAAAKSKRLSEPFFLKNVLLEKSGDTSDLTALALSVHAVMLESGFVLLDHGSDKFSFSKKLLSVSLRYTLPELITRKDTNTVESVTVRFQNIGPRLVVYGTLGGSCKRVHMTSLDKSRFLPVIDLVVDTLKFEKQGSSSYYREVFMLWRMVKDELVIPLLIGLCDKAGLESPPCLMLLPTELKLKILELLPGVSIGYMACVCTEMRYLASDNDLWEHKCLEEGKGCLWKLYTGDVDWKRKFASFWRRKRLDLLARRNPPIKKSNPRFPTLFPDRRDRREPFDRFGPSDFYRFGLRDPRDRFGPRDPRDPHFYGFRY,soluble
2,SDVNECLTIPEACKGEMKCINHYGGYLCLPRSAAVINDLHGEGPPPPVPPAQHPNPCPPGYEPDDQDSCVD,soluble
3,SDVVEVVGSWWAQEREDIIMKYEKGHRAGLPEDKGPKPFGSYNNNIDHFGMQHETELPPLTAREVKQIRREISRKSKWVKMLGEWDTYKNSRKLIDRAYQGIPMNIRGPMWSVLLNIEEIKLKNPGRYQIMKEKGKRSSEHIQQMDLDVSGTLRRHIFFRDRYGTKQRELLYILLAYEEYNPEVGYCRDLSHIAALFLLYLPEEDAFWALVQLLASERHSLQGFHSPNGGTVQGLQDQQEHVVATSLPKTMWHQDKKDLCGQCSSLGCLIRILIDGISLGLTLRLWDVYLVEGEQAFMLITKSPLRFSRSASRRRPGVARGHVFGTGSLMPGPGMMTLCSSILGPL,soluble
4,SEAMFCDFPKINHGILYDEEKYKPFSQVPTGEVFYYSCEYNFVSPSKSFWTRITCAEEGWSPTPKCLRLCFFPFVENGHSESSGQTHLEGDTVQIICNTGYRLQNNENNISCVERGWSTPPKCRSTISAEKCGPPPPIDNGDITSFLLSVYAPGSSVEYQCQNLYQLEGNNQITCRNGQWSEPPKCLDPCVISQEIMEKYNIKLKWTNQQKLYSRTGDIVEFVCKSGYHPTKSHSFRAMCQNGKLVYPSCEEK,soluble
5,SEEVEAEEPQEFSHRQRLKAAVHYTVGCLCQEVTLNKQVNFSKQTIAAISEVTFRQCENFAKDLEMFARWVEKLAV,soluble
6,SEGWAGRVRRHLAGDPARGPTMDVLAAELGVSVRTLRRRLADEGTDYETVVDEIREALAEALLATTTLTVAEVSERLGYSEPSAFARAFRRWKAMSPNEYRRSA,soluble
7,SEKRFKVYVYEEGEPPLVHDGPCKSVYAVEGRFITEMEKRRTKFRTYDPNQAYVYFLPFSVTWLVRYLYEGNSDAKPLKTFVSDYIRLVSTNHPFWNRTNGADHFMLTCHDWGPLTSQANRDLFNTSIRVMCNANSSEGFNPTKDVTLPEIKLYGGEVDHKLRLSKTLSASPRPYLGFFAGGVHGPVRPILLKHWKQRDLDMPVYEYLPKHLNYYDFMRSSKFCFCPSGYEVASPRVIEAIYSECIPVILSVNFVLPFTDVLRWETFSVLVDVSEIPRLKEILMSISNEKYEWLKSNLRYVRRHFELNDPPQRFDAFHLTLHSIWLRRLNLKLT,soluble
8,SELSQLLNEIRANYEKILTRNQIETVLSTRIQLEEDISKKMDKDEEALKAAQAELKEARRQWHHLQVEIESLHAVERGLENSLHASEQHYQMQLQDLETVIEGLEKELQEVRRGIEKQLQEHEMLLNTKMRLEQEIATYRHLLEKEEIRYYGCIQGGKKDKKPTTSRVGFVLPSAIINEISFTTKVPQKYENENVETVTKQAILNGSIVKESTEAHGTIQTEKVDEVIKEWEGSFFKDNPRLRKKSVSLRFDLHLAATDEGCLETKQDNLPDIEVRLIMRRSCSIPSIKPPSTAN,soluble
9,SENLTMNIDSTKTIQGTILPVLDFKTEKENVFTFKNTANLNLLIKHGQVINLINKLEFSTYGNKVTVSGGYVHTEYRYLLHHVFEVYPYVESQWAESRGMKYKVSTGLQSRYR,not soluble
10,SESQTLDKVYQMKSKPRGYCLIINNHNFAKAREKVPKLHSIRDRNGTHLDAGALTTTFEELHFEIKPHDDCTVEQIYEILKIYQLMDHSNMDCFICCILSHGDKGIIYGTDGQEAPIYELTSQFTGLKCPSLAGKPKVFFIQACQGDNYQKGIPVETASEEQPYLEMALSSPQTRYIPDEADFLLGMATVNNCVSYRNPAEGTWYIQSLCQSLRERCPRGDDILTILTEVNYEVSNKDDKKNMGKQMPQPTFTLRKKLVFPSDVEHHHHHH,soluble
11,SFNTYQHLLPETVRHLPDVKKQLAMVRPGLSMLSIFICLKGTKEDLKLQSTNYYVYFDTDMDKAMERYVSMPKEKAPEHIPLLFIAFPSSKDPTWEERFPDRSTMTALVPMAFEWFEEWQEEPKGKRGVDYETLKNAFVEASMSVIMKLFPQLEGKVESVTGGSPLTNQYYLAAPRGATYGADHDLARLHPHAMASIRAQTPIPNLYLTGQDIFTCGLMGALQGALLCSSAILKRNLYSDLQALGSKVKAQKKKM,soluble
12,SFRKGKKRHSSSSSQSSEISTKSKSVDSSLGGLSRSSTVASLDTDSTKSSGQSNNNSDTCAEFRIKYVGAIEKLKLSEGKGLEGPLDLINYIDVAQQDGKLPFVPPEEEFIMGVSKYGIKVSTSDQYDVLHRHALYLIIRMVCYDDGLGVGKSLLALKTTDASNEEYSLWVYQCNSLEQAQAICKVLSTAFDSVLTSEKP,soluble
13,SFTSQQWKHLSNDFLKTQQEKRHSWFKASGTIKKFRAGLSIFSPIPKSPSFPIIQDSMLKGKLGVPELRVGRLMNRSISCTMKNPKVEVFGYPPSPQVSGHCKNIPTLEYGFLVQIMKYAEQRIPTLNEYCVVCDEQHVFQNGSMLKPAVCTRELCVFSFYTLGVMSGAAEEVATGAEVVDLLVAMCRAALESPRKSIIFEPYPSVVDPTDPKTLAFNPKKKNYERLQKALDSVMSIREMTQGSYLEIKKQMDKLDPLAHPLLQWIISSNRSHIVKLPLSRLKFMHTSHQFLLLSSPPAKEARFRTAKKLYGSTFAFHGSHIENWHSILRNGLVNASYTKLQEWEKDSTGCPPRMSWSRDTTG,soluble
14,SGCGGSRADAIEPRYYESWTRETESTWLTYTDSDAPPSAAAPDSGPEAGGLHSGMLEDGLPSNGVPRSTAPGGIPNPEKKTNCETQCPNPQSLSSGPLTQKQNGLQTTEAKRDAKRMPAKEVTINVTDSIQQMDRSRRITKNCVN,soluble
15,SGILFMSKVGLRGDRRSEGDEVLDPLRQALDSSMQSHNLYQHPQHLAFHVSAPVASTVQQASGLLGPLPHLSSFALQPAHSLLPPLGSHGAGFQENGAKAES,soluble
16,SGRFSIKAKNYFLTYPKCDLTKENALSQITNLQTPTNKLFIKICRELHENGEPHLHILIQFEGKYNCTNQRFFDLVSPTRSAHFHPNIQGAKSSSDVKSYIDKDGDVLEWGTFQIDGR,soluble
17,SHMQLKFAECLEKKVDMSKVNLEVIKPWITKRVTEILGFEDDVVIEFIFNQLEVKNPDSKMMQINLTGFLNGKNAREFMGELWPLLLSAQENIAGIPSAFLELKKEEIKQR,soluble
18,SHSSSRASFTTRGDIRRQVEGFSASGERNKDTVVDLSTFFAERGYSNNQAPTKYWEEKLVTIGNVVVPKWVPVKERNSSNKQKEGEDEVFIGFEAIYYPEQPPERQPITLYQEENKVEEEEQSRE,soluble
19,SIAYIEPYFLENDAEAASAATAAGKSTDGVSESLNIQGEILCGGAAADIAGRDFGGMNCVKPLAVVRPVGPEDIAGAVKAALRSDKLTVAARGNGHSINGQAMAEGGLVVDMSTTAENHFEVGYLSGGDATAFVDVSGGALWEDVLKRCVSEYGLAPRSWTDYLGLTVGGTLSNAGVSGQAFRYGPQTSNVTELDVVTGNGDVVTCSEIENSELFFSVLGGLGQFGIITRARVLLQPAPDMVRWIRVVYTEFDEFTQDAEWLVSQKNESSFDYVEGFVFVNGADPVNGWPTVPLHPDHEFDPTRLPQSCGSVLYCLELGLHYRDSDSNSTIDKRVERLIGRLRFNEGLRFEVDLPYVDFLLRVKRSEEIAKENGTWETPHPWLNLFVSKRDIGDFNRTVFKELVKNGVNGPMLVYPLLRSRWDDRTSVVIPEEGEIFYIVALLRFVPPCAKVSSVEKMVAQNQEIVHWCVKNGIDYKLYLPHYKSQEEWIRHFGNRWSRFVDRKAMFDPMAILSPGQKIFNRSL,soluble
20,SIEKARSAAAKEVQKMKTSDKAEATHYLQMGAYADRQSAEGQRAKLAILGISSKVVGYQAGHKTLYRVQSGNMSADAVKKMQDELKKHEVASLIRSIESK,not soluble
21,SIERLGYLGFAVKDVPAWDHFLTKSVGLMAAGSAGDAALYRADQRAWRIAVQPGELDDLAYAGLEVDDAAALERMADKLRQAGVAFTRGDEALMQQRKVMGLLCLQDPFGLPLEIYYGPAEIFHEPFLPSAPVSGFVTGDQGIGAFVRCVPDTAKAMAFYTEVLGFVLSDIIDIQMGPETSVPAHFLHCNGRHHTIALAAFPIPKRIHHFMLQANTIDDVGYAFDRLDAAGRITSLLGRHTNDQTLSFYADTPSPMIEVEFGWGPRTVDSSWTVARHSRTAMWGHKSVRGQR,soluble
22,SIHSMDKPIESKEGNVSVGKFKLSDSSINNPEEIISVPSSTTEIEKVEMKPGRGEGLNPELLPASVSELLIPSPFQPQIPDGNNSSVEFHPSKVVLIGTAHVSEKSVNEVRSAIRNLKPDIVAVELCRARYDSLKGNVPETNQVPIKEILTEGKVYYYLVHWLLAYVQKKIGEDMGVKPGSEMISAIEEAEASGAKIALIDRDIQVTLQRFWGRMKFTEKIKMLGSLIGGLIGIGKGAEIDIDQITQQDVVTALVSELREFAPTAAETLIDERDAYLAGSILRTAAGGNKTIVAVIGAGHKPGVINYLENPKSLPPLNSLMQIPKKR,not soluble
23,SISKEEILKPIWYAFTALDLDRNGKVSKSQLKVLSHNLCTILKIPHNTSALEEHFKDDDEGPVSTQGYMPYLNTFILSKIQPNFDFVELNKMCWTLSAPKHINTMNLLMSEKDAFRVWCIFNFLSEDKYPLTIVTEELEYFLRKLLTAMGCSWNEGRFEDYKMHLNAKTWKHKVSKHEGLLKLVQPGGKTPSKMTNWGQAAFTESELNELEKMWQVNKNRSEEE,soluble
24,SKARTVAGPVGGSLSVQCPYEKEHRTLNKYWCRPPQIFLCDKIVETKGSAGKRNGRVSIRDSPANLSFTVTLENLTEEDAGTYWCGVDTPWLQDFHDPVVEVEVSVFPAS,soluble
25,SKDIDMGKEYIIPSPGYRSDRDRSAVPGQHRDPEEPRFRRTRSLECQDALETAARVEGLSLDISVHSHLQILDEEHSKGKYHHGLSVLKPFRTTTKHQHPVDNAGLFSYMTFSWLSPLARVVHKKGELLMEDVWPLSKYESSDVNSRRLERLWQEELNEVGPDAASLRRVVWIFCRTRLILSIVCLMITQLAGFSGPNFQDGCILRSE,soluble
26,SKDVLADYKELFRQFSISDIAVWVSTPSFAGVCITEKEFNSKMLPNLESMIFIGEALSKNLTKELMSRFPNTRIINGYGPTEATVGVSVNDMTQKAIDDEK,not soluble
27,SKFGKSLSNQIEQTLPEWQDKFLSYKELKKRLKLIGSKTADRPVKRLRLDEFSVGISKEEINFIQLLEDELEKFNNFFVEKEEEYIIRLKEFRDRIAKAKDSMEKMIKIRKEIVDFHGEMVLLENYSALNYTGLVKILKKYDKRTGDLMRLPFIQKVLQQPFYTTDLLFKLVKESEAMLDQIFPANETESEIIQAELSEHKFMESLHMKSTIAALRVLKEIRSGSSTVSVFSLPPLQLNGLDETWKKIPLLEQEAK,soluble
